Reference: patent US8877192B2, “Rage fusion proteins and methods of use” (TransTech Pharma, LLC, priority 2004, dated 2014)

Legend:
[1] = system: S100b/RAGE-induced production of TNF-α in THP-1 cells; assay: S100b/RAGE-induced production of TNF-α in THP-1 cells; type: cell-based; conditions: FIG. 10
Protocol: THP-1 myeloid cells may be cultured in RPMI-1640 media supplemented with 10% FBS and induced to secrete TNF-α via stimulation of RAGE with S100b. When such stimulation occurs in the presence of a RAGE fusion protein, induction of TNF-α by S100b binding to RAGE may be inhibited.
Previous work has shown that the myeloid THP-1 cells may secrete TNF-α in response to RAGE ligands. In this assay, THP-1 cells were cultured in RPMI-1640 media supplemented with 10% FBS using a protocol provided by ATCC. […] The amount of TNF-α secreted by the THP-1 cells was measured 24 hours after the addition of the proteins to the cell culture using a commercially available ELISA kit for TNF-α (R&D Systems, Minneapolis, Minn.).

Fc receptor = Fc receptor activation: TNF-α secretion from THP-1 cells; type: cell-based; conditions: wells precoated with 10 ug/well heat aggregated protein, 24 hours, FIG. 12
Excerpt: Fc stimulation results in TNF-α secretion.

[2] = system: diabetic rat model of restenosis; assay: Diabetic rat model of restenosis (balloon injury of left common carotid artery); type: in vivo, Zucker diabetic rats; conditions: 4 days after injury; dose-responsive; FIG. 13B
Protocol: In these experiments, balloon injury of left common carotid artery was performed in Zucker diabetic and nondiabetic rats using standard procedure. […] A maintenance dose was delivered every other day until day 7 after injury (i.e., at day 1, 3, 5 and 7 after injury). The maintenance dose was high=1 mg/animal for one group, or low=0.3 mg/animal for the second group. To measure vascular smooth muscle cell (VSMC) proliferation, animals were sacrificed at 4 days and 21 days after injury. For the measurement of cell proliferation, 4 day animals received intraperitoneal injection of bromodeoxyuridine (BrDdU) 50 mg/kg at 18, 12, and 2 hours before euthanasia. After sacrifice, the entire left and right carotid arteries were harvested. Specimens were stored in Histochoice for at least 24 hours before embedding. […] A fluorescence labeled goat anti-mouse secondary antibody was applied. The number of BrdU-positive nuclei per section were counted by two observers blinded to the treatment regimens.
The remaining rats were sacrificed at 21 days for morphometric analysis. Morphometric analyses were performed by an observer blinded to the study groups, using computerized digital microscopic planimetry software Image-Pro Plus on serial sections, ([…]) carotid arteries stained by Van Gieson staining All data were expressed as mean±SD. […]

[3] = system: transgenic mice expressing the human Swedish mutant amyloid precursor protein (APP); assay: Mouse model of AD (APP transgenic mice); type: in vivo
Protocol: Experiments were performed to evaluate whether TTP-4000 could affect amyloid formation and cognitive dysfunction in a mouse model of AD. The experiments utilized transgenic mice expressing the human Swedish mutant amyloid precursor protein (APP) under the control of the PDGF-B chain promoter. Over time, these mice generate high levels of the RAGE ligand, amyloid beta (Aβ).
The APP mice (male) used in this experiment were designed by microinjection of the human APP gene (with the Swedish and London mutations) into mouse eggs under the control of the platelet-derived growth factor B (PDGF-B) chain gene promoter. The mice were generated on a C57BL/6 background and were developed by Molecular Therapeutics Inc. Animals were fed ad libitum and maintained by brother sister mating. The mice generated from this construct develop amyloid deposits starting at 6 months of age. Animals were aged for 6 months and then maintained for 90 days and sacrificed for amyloid quantification.
APP transgenic mice were administered vehicle or TTP4000 every other day [qod (i.p.)] for 90 days starting at 6 months of age. At the end of the experiment, animals were sacrificed and examined for Aβ plaque burden in the brain (i.e., plaque number). A 6-month control APP group was used to determine the baseline of amyloid deposits. In addition, at the end of the study, the animals were subjected to behavioral (Morris water maze) analysis. The investigators were blinded to the study compounds. Samples were given to the mice at 0.25 ml/mouse/every other day.
For histological examination, the animals were anesthetized with an intraperitoneal injection (IP) of sodium pentobarbital (50 mg/kg). The animals were transcardially perfused with 4° C., phosphate-buffered saline (PBS) followed by 4% paraformaldehyde. The brains were removed and placed in 4% paraformaldehyde over night. The brains were processed to paraffin and embedded. Ten serial 30-μm thick sections through the brain were obtained. Sections were subjected to primary antibody overnight at 4° C. (Aβ peptide antibody) in order to detect the amyloid deposits in the brain of the transgenic animals (Guo et al., J. Neurosci., 22:5900-5909 (2002)). Sections were washed in Tris-buffered saline (TBS) and secondary antibody was added and incubated for 1 hour at room temperature. After washing, the sections were incubated as instructed in the Vector ABC Elite kit (Vector Laboratories) and stained with […] (DAB). The reactions were stopped in water and cover-slipped after treatment with xylene. The amyloid area in each section was determined with a computer-assisted image analysis system, consisting of a Power Macintosh computer equipped with a Quick Capture frame grabber card, Hitachi CCD camera mounted on an Olympus microscope and camera stand. NIH Image Analysis Software, v. 1.55 was used. The images were captured and the total area of amyloid was determined over the ten sections. A single operator blinded to treatment status performed all measurements. Summing the amyloid volumes of the sections and dividing by the total number of sections was done to calculate the amyloid volume.
For quantitative analysis, an enzyme-linked immunosorbent assay (ELISA) was used to measure the levels of human total Aβ, Aβtotal and Aβ1-42 in the brains of APP transgenic mice (Biosource International, Camarillo, Calif.). Aβtotal and Aβ1-42 were extracted from mouse brains by guanidine hydrochloride and quantified as described by the manufacturer. […]

B1: TTP-4000: four domain RAGE fusion protein (SEQ ID NO: 32): human RAGE amino acids 1-251 linked to CH2 and CH3 domains of human IgG (protein)
chain: MAAGTAVGAWALVLSLWGAVVGAQNITARIGEPLVLKCKGAPKKPPQRLEWKLNTGRTEAWKVLSPQGGGPWDSVARVLPNGSLFLPAVGIQDEGIFRCQAMNRNGKETKSNYRVRVYQIPGKPEIVDSASELTAGVPNKVGTCVSEGSYPAGTLSWHLDGKPLVPNEKGVSVKEQTRRHPETGLFTLQSELMVTPARGGDPRPTFSCSFSPGLPRHRALRTAPIQPRVWEPVPLEEVQLVVEPEGGAVAPPSVFLFPPKPKDTLMISRTPEVTCVVVDVSHEDPEVKFNWYVDGVEVHNAKTKPREEQYNSTYRVVSVLTVLHQDWLNGKEYKCKVSNKALPAPIEKTISKAKGQPREPQVYTLPPSRDELTKNQVSLTCLVKGFYPSDIAVEWESNGQPENNYKTTPPVLDSDGSFFLYSKLTVDKSRWQQGNVFSCSVMHEALHNHYTQKSLSLSPGK
reduction of induction of TNF-α by S100b ([1]; 10 μg protein, S100b 0.1 mg/ml FAC, 24 hours): ~70% | blocking S100b induction of TNF-α compared with sRAGE ([1]; 10 μg): at least as effective in blocking S100b induction of TNF-α as is sRAGE | TNF generated (Fc receptor): less than 2 ng/well | vascular smooth muscle cell proliferation (BrdU-positive nuclei) [2]: significantly reduced | inflammatory cytokines IL-1 and TNF-α ([3]; data not shown): reduce | Aβ plaques in the brain ([3]; treated for 3 months, versus vehicle and human IgG1, FIG. 14A): fewer Aβ plaques | cognitive dysfunction (Morris water maze) ([3]; treated for 3 months, versus vehicle and human IgG1, FIG. 14B): less cognitive dysfunction
